Results from patent publication US20260014245A1.

Experiments:
[1] = molecular target: MERS-CoV RBD (wild type, amino acids G372-L588, AviTag, Twin Strep tag, 6xHis) (MERS-CoV); assay: rabbit DPP4
[2] = molecular target: DPP4/CD26 on human CD3 expressing T cells (human) (UniProt P27487); assay: flow cytometry of human PBMCs, MERS-RBD - AF488 against CD3 - PerCP-Cy5
Chain of DPP4/CD26 on human CD3 expressing T cells (human) (P27487 whole entry): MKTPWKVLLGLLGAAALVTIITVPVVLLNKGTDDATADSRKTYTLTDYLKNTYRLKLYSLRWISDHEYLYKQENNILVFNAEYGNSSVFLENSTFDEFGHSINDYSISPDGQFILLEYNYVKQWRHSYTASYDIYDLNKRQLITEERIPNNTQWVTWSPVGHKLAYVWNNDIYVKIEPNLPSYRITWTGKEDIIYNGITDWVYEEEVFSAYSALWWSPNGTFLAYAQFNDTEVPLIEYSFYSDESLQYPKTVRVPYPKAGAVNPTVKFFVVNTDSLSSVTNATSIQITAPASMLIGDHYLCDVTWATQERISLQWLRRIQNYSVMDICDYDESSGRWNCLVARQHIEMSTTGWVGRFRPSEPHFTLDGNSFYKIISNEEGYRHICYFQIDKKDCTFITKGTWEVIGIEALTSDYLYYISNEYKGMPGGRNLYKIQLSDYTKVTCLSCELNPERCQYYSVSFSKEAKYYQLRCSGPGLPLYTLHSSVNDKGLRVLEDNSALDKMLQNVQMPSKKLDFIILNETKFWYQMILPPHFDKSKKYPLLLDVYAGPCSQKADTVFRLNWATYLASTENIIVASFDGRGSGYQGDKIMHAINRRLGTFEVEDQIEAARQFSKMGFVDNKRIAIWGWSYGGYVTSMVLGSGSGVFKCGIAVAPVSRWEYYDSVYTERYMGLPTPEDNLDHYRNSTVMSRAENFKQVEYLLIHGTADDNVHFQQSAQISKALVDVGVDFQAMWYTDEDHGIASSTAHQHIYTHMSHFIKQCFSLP

Row | Substance | Kd [1] [nM] | CD3+ MERS-RBD+ quadrant frequency (percent of gated DAPI- lymphocytes) [2]
1 | recombinant rabbit DPP4 with a C-terminal 6xHis-tag (rbDPP4-His) (from UniProt A0A5F9CKR3 29-732) (receptor) | 34.3 | 
2 | MERS-CoV RBD (wild type, amino acids G372-L588, AviTag, Twin Strep tag, 6xHis) (ligand; other documents disagree on this pair) |  | 4.92
